Laboratory results reported in patent US20250197490A1 (HBM ALPHA THERAPEUTICS, published 2025).

T1: corticotropin-releasing hormone (CRH) peptide (human and mouse, UniProt P01143 145-185 (rat entry), not fully specified)
T1 peptide: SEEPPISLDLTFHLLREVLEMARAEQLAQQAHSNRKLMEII


Target: T1, corticotropin-releasing hormone (CRH) …
Assay: cell-based or functional assay

hCRHR1-Luc 0.5 nM CRH IC50 [nM] | Binder
10.5 | PR302309-15 (antibody, human IgG1, kappa, V domains shown) VH: QVQLVQSGAEVKKPGASVKVSCKASGYTFTNYGMNWVRQAPGQRLEWMGWINTYTGEPIYTDDFKGRVTITRDTSASTAYMELSSLRSEDTAVYYCARSTMITTGGVFAYWGQGTLVTVSS VL: DVLMAQTPLSLPVSLGDQASISCRSSQTIVHSDGNTYLEWYLQKPGQSPKLLIYKVSNRFSGVPDRFSGSGSGTDFTLKISRVEAEDLGVYYCFQGSHVPWTFGGGTKLEIKR
5.47 | PR302309-16 (antibody, human IgG1, kappa, V domains shown) VH: QIQLVQSGAEVKKPGASVKVSCKASGYTFTNYGMNWVRQAPGQRLEWMGWINTYTGEPIYTDDFKGRVTITLDTSASTAYMELSSLRSEDTAVYYCSRSTMITTGGVFAYWGQGTLVTVSS VL: DVLMAQTPLSLPVSLGDQASISCRSSQTIVHSDGNTYLEWYLQKPGQSPKLLIYKVSNRFSGVPDRFSGSGSGTDFTLKISRVEAEDLGVYYCFQGSHVPWTFGGGTKLEIKR
4.47 | PR302309-12 (antibody, human IgG1, kappa, V domains shown) VH: QIQLVQSGSELKKPGASVKVSCKASGYTFTNYGMNWVRQAPGQGLEWMGWINTYTGEPIYTDDFKGRFVFSLDTSVSTAYLQISSLKAEDTAVYYCSRSTMITTGGVFAYWGQGTLVTVSS VL: DVVMTQTPLSSPVTLGQPASISCRSSQTIVHSDGNTYLEWYQQRPGQPPRLLIYKVSNRFSGVPDRFSGSGAGTDFTLKISRVEAEDLGVYYCFQGSHVPWTFGGGTKVEIKR
8.44 | PR302309-21 (antibody, human IgG1, kappa, V domains shown) VH: QIQLVQSGAEVKKPGASVKVSCKASGYTFTNYGMNWVRQAPGQRLEWMGWINTYTGEPIYTDDFKGRVTITLDTSASTAYMELSSLRSEDTAVYYCSRSTMITTGGVFAYWGQGTLVTVSS VL: DVVMTQTPLSSPVTLGQPASISCRSSQTIVHSDGNTYLEWYQQRPGQPPRLLIYKVSNRFSGVPDRFSGSGAGTDFTLKISRVEAEDLGVYYCFQGSHVPWTFGGGTKVEIKR
3.07 | PR302309-20 (antibody, human IgG1, kappa, V domains shown) VH: QIQLVQSGAEVKKPGASVKVSCKASGYTFTNYGMNWVRQAPGQRLEWMGWINTYTGEPIYTDDFKGRVTITLDTSASTAYMELSSLRSEDTAVYYCSRSTMITTGGVFAYWGQGTLVTVSS VL: DVVMTQTPLSLSVTPGQPASISCRSSQTIVHSDGNTYLEWYLQKPGQSPQLLIYKVSNRFSGVPDRFSGSGSGTDFTLKISRVEAEDLGVYYCFQGSHVPWTFGGGTKVEIKR
4.83 | PR302309-19 (antibody, human IgG1, kappa, V domains shown) VH: QIQLVQSGAEVKKPGASVKVSCKASGYTFTNYGMNWVRQAPGQRLEWMGWINTYTGEPIYTDDFKGRVTITLDTSASTAYMELSSLRSEDTAVYYCSRSTMITTGGVFAYWGQGTLVTVSS VL: DVVMTQSPLSLPVTLGQPASISCRSSQTIVHSDGNTYLEWYQQRPGQSPRLLIYKVSNRFSGVPDRFSGSGSGTDFTLKISRVEAEDLGVYYCFQGSHVPWTFGGGTKVEIKR

The next lines start with the binder.

Binder | hCRHR1-Luc 0.5 nM CRH IC50 [nM]
PR302309-7 (antibody, human IgG1, kappa, V domains shown) VH: QIQLVQSGSELKKPGASVKVSCKASGYTFTNYGMNWVRQAPGQGLEWMGWINTYTGEPIYTDDFKGRFVFSLDTSVSTAYLQISSLKAEDTAVYYCSRSTMITTGGVFAYWGQGTLVTVSS VL: DVVMTQSPLSLPVTLGQPASISCRSSQTIVHSDGNTYLEWFQQRPGQSPRRLIYKVSNRFSGVPDRFSGSGSGTDFTLKISRVEAEDVGVYYCFQGSHVPWTFGGGTKVEIKR | 6.38
PR302309-9 (antibody, human IgG1, kappa, V domains shown) VH: QIQLVQSGSELKKPGASVKVSCKASGYTFTNYGMNWVRQAPGQGLEWMGWINTYTGEPIYTDDFKGRFVFSLDTSVSTAYLQISSLKAEDTAVYYCSRSTMITTGGVFAYWGQGTLVTVSS VL: DIVMTQTPLSLSVTPGQPASISCRSSQTIVHSDGNTYLEWYLQKPGQSPQLLIYKVSNRFSGVPDRFSGSGSGTDFTLKISRVEAEDVGVYYCFQGSHVPWTFGGGTKVEIKR | 6.08
PR302309-10 (antibody, human IgG1, kappa, V domains shown) VH: QIQLVQSGSELKKPGASVKVSCKASGYTFTNYGMNWVRQAPGQGLEWMGWINTYTGEPIYTDDFKGRFVFSLDTSVSTAYLQISSLKAEDTAVYYCSRSTMITTGGVFAYWGQGTLVTVSS VL: DVVMTQTPLSLSVTPGQPASISCRSSQTIVHSDGNTYLEWYLQKPGQSPQLLIYKVSNRFSGVPDRFSGSGSGTDFTLKISRVEAEDLGVYYCFQGSHVPWTFGGGTKVEIKR | 3.2

Target: T1, corticotropin-releasing hormone (CRH) …
Assay: cell-based or functional assay
Remark: another data set of the same source

unlabelled nM value (Table 5 matrix; likely hCRHR1-Luc IC50 as in Tables 6-8) [nM] | Binder
0.674 | PR301777 (antibody, human IgG1, kappa, V domains shown) VH: EMKLEESGGGLVQPGGSMKLSCVASGFTFSNYWMNWVRQSPEKGLEWVAEIRLKSNNYATHYAESVKGRFTISRDDSKSGVYLQMNNLGAEDTGIYYCTVGTLVYWGQGTLVTVSA VL: DIVLTQSPASLAVSLGQRATISCRASQSVSTSTYNYMHWFQQKPGQPPKLLIKFASNLESGVPARFSGSGSGTDFTLNIHPVEEEDTATFYCQHSWEIPYTFGGGTKLEIKR
1.4 | PR302036 (antibody, human IgG1, kappa, V domains shown) VH: EMQLVESGGGLVQPGGSLRLSCAASGFTFSNYWMNWVRQAPGKGLEWVAEIRLKSNNYATHYAESVKGRFTISRDDSKSSVYLQMNSLKTEDTAVYYCTVGTLVYWGQGTLVTVSS VL: DIVLTQSPDSLAVSLGERATINCRASQSVSTSTYNYMHWFQQKPGQPPKLLIKFASNLESGVPDRFSGSGSGTDFTLTISSLQAEDTAVYYCQHSWEIPYTFGQGTKLEIKR
3.34 | PR302038 (antibody, human IgG1, kappa, V domains shown) VH: EMQLVESGGGLVQPGGSLRLSCAASGFTFSNYWMNWVRQAPGKGLEWVAEIRLKSNNYATHYAESVKGRFTISRDDSKSSVYLQMNSLKTEDTAVYYCTVGTLVYWGQGTLVTVSS VL: EIVLTQSPATLSLSPGERATLSCRASQSVSTSTYNYMHWFQQKPGQAPRLLIKFASNLESGIPARFSGSGSGTDFTLTISSLEPEDTAVYYCQHSWEIPYTFGQGTKLEIKR
3.87 | PR302043 (antibody, human IgG1, kappa, V domains shown) VH: EVQLVESGGGLVQPGGSLKLSCAASGFTFSNYWMNWVRQASGKGLEWVGEIRLKSNNYATHYAESVKGRFTISRDDSKNTAYLQMNSLKTEDTAVYYCTRGTLVYWGQGTLVTVSS VL: DIVLTQSPDSLAVSLGERATINCRASQSVSTSTYNYMHWFQQKPGQPPKLLIKFASNLESGVPDRFSGSGSGTDFTLTISSLQAEDTAVYYCQHSWEIPYTFGQGTKLEIKR
0.572 | PR302050 (antibody, human IgG1, kappa, V domains shown) VH: EMQLVESGGGLVQPGGSLKLSCAASGFTFSNYWMNWVRQASGKGLEWVAEIRLKSNNYATHYAESVKGRFTISRDDSKSTVYLQMNSLKTEDTAVYYCTVGTLVYWGQGTLVTVSS VL: DIVLTQSPDSLAVSLGERATINCRASQSVSTSTYNYMHWFQQKPGQPPKLLIKFASNLESGVPDRFSGSGSGTDFTLTISSLQAEDTAVYYCQHSWEIPYTFGQGTKLEIKR
2.65 | PR302029 (antibody, human IgG1, kappa, V domains shown) VH: EVQLVESGGGLVQPGGSLRLSCAASGFTFSNYWMNWVRQAPGKGLEWVGEIRLKSNNYATHYAESVKGRFTISRDDSKNSLYLQMNSLKTEDTAVYYCTVGTLVYWGQGTLVTVSS VL: DIVLTQSPDSLAVSLGERATINCRASQSVSTSTYNYMHWFQQKPGQPPKLLIKFASNLESGVPDRFSGSGSGTDFTLTISSLQAEDTAVYYCQHSWEIPYTFGQGTKLEIKR
